Laboratory results: PMC11863148

Molecular target: MERS-CoV nsp13 helicase (WT) (MERS-CoV, UniProt K9N7C7 5311-5908)
Assay: EMSA

Sequence of MERS-CoV nsp13 helicase (WT) (K9N7C7 5311-5908): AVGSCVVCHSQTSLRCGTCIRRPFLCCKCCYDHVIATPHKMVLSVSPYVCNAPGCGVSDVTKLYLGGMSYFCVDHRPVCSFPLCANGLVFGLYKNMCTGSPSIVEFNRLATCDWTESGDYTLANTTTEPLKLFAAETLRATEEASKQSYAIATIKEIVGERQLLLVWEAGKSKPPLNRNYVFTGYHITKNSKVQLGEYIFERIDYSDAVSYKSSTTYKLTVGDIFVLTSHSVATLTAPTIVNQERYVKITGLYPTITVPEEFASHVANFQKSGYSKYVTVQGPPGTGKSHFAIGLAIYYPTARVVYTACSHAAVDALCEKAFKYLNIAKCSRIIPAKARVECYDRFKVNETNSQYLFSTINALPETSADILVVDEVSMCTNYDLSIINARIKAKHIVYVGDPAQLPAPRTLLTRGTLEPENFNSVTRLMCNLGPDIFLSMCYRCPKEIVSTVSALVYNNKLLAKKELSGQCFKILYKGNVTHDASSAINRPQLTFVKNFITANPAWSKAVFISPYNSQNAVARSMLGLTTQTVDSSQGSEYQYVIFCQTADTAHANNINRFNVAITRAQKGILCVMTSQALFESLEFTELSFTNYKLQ

B1: EMSA partial duplex, 18 bp with 5' (dT)21 overhang (dsDNA)
DNA 1: TTTTTTTTTTTTTTTTTTTTTCTGATGTTAGCAGCTTCG
DNA 2: CGAAGCTGCTAACATCAG
- binding result: binds
